Target: the molecule itself
Experiment: SEC; HiLoad 16/60 Superdex 200 prep grade column on an Äkta FPLC in buffer A (20 mM Hepes, 300 mM NaCl, 100 mM L-arginine, 1 mM TCEP, pH 7.0); molecular weight from a calibration curve of gel filtration standards; self-association, dimer or monomer

B1: recombinant BosR with a C-terminal Strep-II tag (WT rBosR-StrepII) (natural protein)
chain: MNDNIIDVHSALEKVGITNDPVLLKNLTSELGMKASHSRNRIILYIASNPKEYFTAKEVYNKLIKEIPSLSKATVYNTLNILKERNILKDIKTTDQKETKFYLSLASTIAHFKCNKCNQVHPIQLDDIKDILKDKLGENWETKSIEIIYSGHCNNCYKKDTHNNNNVPDENKEITL
notes: BosR (Fur family member), Borrelia burgdorferi strain 297, ORF bb0647; bosR amplified with primers from the ATG start codon to the last codon before the stop, fused directly to the Strep-II tag; theoretical MW of rBosR-StrepII 21.25 kDa; also called pOY436; source: E. coli M15 (pREP4), purified (Strep-Tactin resin, Superdex 200 FPLC)
Question: With B1 as the protein, how does the “stoichiometry N” value read?
Answer: 2
